Assays:
Mcm3 (yeast) = Mcm3 (yeast) (budding yeast, UniProt P24279 1-971); assay: cryo-EM structure
Mcm4 (yeast) = molecular target: T1, Mcm4 (yeast) (budding yeast, UniProt P30665 1-933); assay: cryo-EM structure
T1 sequence: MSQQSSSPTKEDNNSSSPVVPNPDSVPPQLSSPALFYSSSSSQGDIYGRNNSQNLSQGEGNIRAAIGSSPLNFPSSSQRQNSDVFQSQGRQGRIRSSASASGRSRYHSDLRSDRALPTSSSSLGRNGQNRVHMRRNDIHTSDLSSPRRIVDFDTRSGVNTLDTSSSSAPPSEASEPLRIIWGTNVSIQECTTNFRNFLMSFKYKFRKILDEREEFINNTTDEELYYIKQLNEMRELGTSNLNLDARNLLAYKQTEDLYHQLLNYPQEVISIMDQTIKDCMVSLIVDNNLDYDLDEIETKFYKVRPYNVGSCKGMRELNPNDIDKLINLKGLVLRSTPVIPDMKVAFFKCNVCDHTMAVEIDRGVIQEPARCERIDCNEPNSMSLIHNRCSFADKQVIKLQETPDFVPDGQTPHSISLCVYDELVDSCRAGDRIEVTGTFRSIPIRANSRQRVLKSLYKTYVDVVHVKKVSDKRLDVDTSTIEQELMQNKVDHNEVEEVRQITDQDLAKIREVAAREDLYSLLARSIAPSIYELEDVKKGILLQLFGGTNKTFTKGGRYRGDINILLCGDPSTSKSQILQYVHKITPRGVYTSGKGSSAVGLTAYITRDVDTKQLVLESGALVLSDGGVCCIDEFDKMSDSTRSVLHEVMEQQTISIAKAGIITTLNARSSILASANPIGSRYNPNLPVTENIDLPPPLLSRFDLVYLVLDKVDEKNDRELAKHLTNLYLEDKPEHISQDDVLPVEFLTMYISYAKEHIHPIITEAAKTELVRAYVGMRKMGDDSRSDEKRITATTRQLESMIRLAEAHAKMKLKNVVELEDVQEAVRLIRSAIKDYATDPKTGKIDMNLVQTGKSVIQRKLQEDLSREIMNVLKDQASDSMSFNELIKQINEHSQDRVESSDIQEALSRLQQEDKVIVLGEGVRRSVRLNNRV

Chain of Mcm3 (yeast) (P24279 whole entry): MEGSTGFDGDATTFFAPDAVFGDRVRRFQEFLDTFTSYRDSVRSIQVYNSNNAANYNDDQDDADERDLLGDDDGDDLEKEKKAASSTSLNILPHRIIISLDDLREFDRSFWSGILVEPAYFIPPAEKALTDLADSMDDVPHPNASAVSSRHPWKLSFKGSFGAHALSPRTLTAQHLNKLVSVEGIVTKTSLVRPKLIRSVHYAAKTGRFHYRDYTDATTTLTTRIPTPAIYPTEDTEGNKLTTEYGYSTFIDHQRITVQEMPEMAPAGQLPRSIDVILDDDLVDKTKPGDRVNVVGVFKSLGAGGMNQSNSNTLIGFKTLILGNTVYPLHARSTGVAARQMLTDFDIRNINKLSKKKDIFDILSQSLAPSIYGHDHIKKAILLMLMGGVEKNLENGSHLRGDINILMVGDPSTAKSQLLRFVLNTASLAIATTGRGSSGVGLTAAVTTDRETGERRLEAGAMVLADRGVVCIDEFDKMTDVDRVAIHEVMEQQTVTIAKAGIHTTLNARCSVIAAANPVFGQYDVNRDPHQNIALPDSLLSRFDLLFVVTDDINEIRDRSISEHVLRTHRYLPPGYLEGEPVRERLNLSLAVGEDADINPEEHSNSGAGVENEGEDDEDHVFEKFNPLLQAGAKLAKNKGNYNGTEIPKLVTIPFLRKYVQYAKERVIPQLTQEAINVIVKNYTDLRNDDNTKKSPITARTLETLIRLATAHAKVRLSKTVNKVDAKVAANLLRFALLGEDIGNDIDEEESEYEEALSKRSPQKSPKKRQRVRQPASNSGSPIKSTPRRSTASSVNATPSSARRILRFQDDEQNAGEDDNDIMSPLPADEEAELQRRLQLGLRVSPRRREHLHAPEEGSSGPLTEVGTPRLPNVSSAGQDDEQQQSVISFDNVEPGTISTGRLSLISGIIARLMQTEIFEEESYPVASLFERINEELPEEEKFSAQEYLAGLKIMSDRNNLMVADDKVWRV

B1: Mcm7 (yeast) (natural protein, budding yeast)
chain: MSAALPSIQLPVDYNNLFNEITDFLVTFKQDTLSSDATRNENEDENLDAENIEQHLLEKGPKYMAMLQKVANRELNSVIIDLDDILQYQNEKFLQGTQADDLVSAIQQNANHFTELFCRAIDNNMPLPTKEIDYKDDVLDVILNQRRLRNERMLSDRTNEIRSENLMDTTMDPPSSMNDALREVVEDETELFPPNLTRRYFLYFKPLSQNCARRYRKKAISSKPLSVRQIKGDFLGQLITVRGIITRVSDVKPAVEVIAYTCDQCGYEVFQEVNSRTFTPLSECTSEECSQNQTKGQLFMSTRASKFSAFQECKIQELSQQVPVGHIPRSLNIHVNGTLVRSLSPGDIVDVTGIFLPAPYTGFKALKAGLLTETYLEAQFVRQHKKKFASFSLTSDVEERVMELITSGDVYNRLAKSIAPEIYGNLDVKKALLLLLVGGVDKRVGDGMKIRGDINVCLMGDPGVAKSQLLKAICKISPRGVYTTGKGSSGVGLTAAVMKDPVTDEMILEGGALVLADNGICCIDEFDKMDESDRTAIHEVMEQQTISISKAGINTTLNARTSILAAANPLYGRYNPRLSPLDNINLPAALLSRFDILFLMLDIPSRDDDEKLAEHVTYVHMHNKQPDLDFTPVEPSKMREYIAYAKTKRPVMSEAVNDYVVQAYIRLRQDSKREMDSKFSFGQATPRTLLGIIRLSQALAKLRLADMVDIDDVEEALRLVRVSKESLYQETNKSKEDESPTTKIFTIIKKMLQETGKNTLSYENIVKTVRLRGFTMLQLSNCIQEYSYLNVWHLINEGNTLKFVDDGTMDTDQEDSLVSTPKLAPQTTASANVSAQDSDIDLQDA
B1: binds (Mcm3 (yeast)); binds (Mcm4 (yeast)).

From publication PMC12338045 (Science (New York, N.Y.), 2025)
